According to PMC6810650 (Cell, 2019):

Legend:
GST-Ubx5 = target: T1, GST-Ubx5 (S. cerevisiae, UniProt Q06682 1-500); assay: pull-down
T1 sequence (looked up): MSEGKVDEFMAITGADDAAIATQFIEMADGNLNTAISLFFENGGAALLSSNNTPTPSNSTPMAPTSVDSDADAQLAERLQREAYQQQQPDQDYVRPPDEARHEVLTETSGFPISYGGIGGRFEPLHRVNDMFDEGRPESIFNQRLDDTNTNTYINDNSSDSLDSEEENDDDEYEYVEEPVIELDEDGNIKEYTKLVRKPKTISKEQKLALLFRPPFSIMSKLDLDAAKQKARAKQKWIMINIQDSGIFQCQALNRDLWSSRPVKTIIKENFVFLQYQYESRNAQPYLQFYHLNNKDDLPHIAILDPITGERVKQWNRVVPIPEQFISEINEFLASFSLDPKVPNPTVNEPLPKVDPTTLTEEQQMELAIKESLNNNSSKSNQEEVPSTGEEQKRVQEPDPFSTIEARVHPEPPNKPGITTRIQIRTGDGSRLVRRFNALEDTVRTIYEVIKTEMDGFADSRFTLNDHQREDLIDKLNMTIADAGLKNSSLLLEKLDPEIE

GST-PUX9 = target: T2, GST-PUX9 (Arabidopsis thaliana, UniProt Q4V3D3 1-469); assay: pull-down
T2 sequence (looked up): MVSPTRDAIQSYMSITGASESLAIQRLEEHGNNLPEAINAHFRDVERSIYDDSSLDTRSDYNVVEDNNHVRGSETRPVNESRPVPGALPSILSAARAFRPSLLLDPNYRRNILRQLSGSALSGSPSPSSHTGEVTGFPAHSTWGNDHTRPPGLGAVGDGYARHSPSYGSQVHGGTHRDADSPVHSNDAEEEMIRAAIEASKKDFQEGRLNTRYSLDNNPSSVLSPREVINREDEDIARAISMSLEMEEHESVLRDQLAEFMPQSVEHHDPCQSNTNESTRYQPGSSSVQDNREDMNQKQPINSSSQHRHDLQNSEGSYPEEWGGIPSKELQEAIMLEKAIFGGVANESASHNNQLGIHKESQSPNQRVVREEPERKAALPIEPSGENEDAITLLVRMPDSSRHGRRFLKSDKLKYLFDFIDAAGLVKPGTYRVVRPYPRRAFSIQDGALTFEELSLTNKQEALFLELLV

GST-PUX13 = target: T3, GST-PUX13 (Arabidopsis thaliana, UniProt Q9C5G7 1-525); assay: pull-down
T3 sequence (looked up): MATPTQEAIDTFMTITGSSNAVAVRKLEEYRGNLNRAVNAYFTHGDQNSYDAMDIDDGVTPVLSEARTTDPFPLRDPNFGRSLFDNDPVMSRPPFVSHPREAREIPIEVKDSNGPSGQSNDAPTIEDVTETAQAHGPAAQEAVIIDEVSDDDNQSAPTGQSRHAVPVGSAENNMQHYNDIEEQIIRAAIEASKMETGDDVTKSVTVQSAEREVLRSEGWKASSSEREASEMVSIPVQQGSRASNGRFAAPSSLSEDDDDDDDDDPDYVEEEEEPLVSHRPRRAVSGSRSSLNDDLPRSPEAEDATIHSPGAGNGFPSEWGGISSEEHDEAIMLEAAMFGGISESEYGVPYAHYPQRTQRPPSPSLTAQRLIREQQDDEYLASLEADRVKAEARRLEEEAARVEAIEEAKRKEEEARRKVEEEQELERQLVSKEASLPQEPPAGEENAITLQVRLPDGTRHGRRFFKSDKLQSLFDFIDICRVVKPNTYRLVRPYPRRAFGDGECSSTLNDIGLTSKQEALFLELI

GST-PUX8 = target: T4, GST-PUX8 (Arabidopsis thaliana, UniProt F4JPR7 1-564); assay: pull-down
T4 sequence (looked up): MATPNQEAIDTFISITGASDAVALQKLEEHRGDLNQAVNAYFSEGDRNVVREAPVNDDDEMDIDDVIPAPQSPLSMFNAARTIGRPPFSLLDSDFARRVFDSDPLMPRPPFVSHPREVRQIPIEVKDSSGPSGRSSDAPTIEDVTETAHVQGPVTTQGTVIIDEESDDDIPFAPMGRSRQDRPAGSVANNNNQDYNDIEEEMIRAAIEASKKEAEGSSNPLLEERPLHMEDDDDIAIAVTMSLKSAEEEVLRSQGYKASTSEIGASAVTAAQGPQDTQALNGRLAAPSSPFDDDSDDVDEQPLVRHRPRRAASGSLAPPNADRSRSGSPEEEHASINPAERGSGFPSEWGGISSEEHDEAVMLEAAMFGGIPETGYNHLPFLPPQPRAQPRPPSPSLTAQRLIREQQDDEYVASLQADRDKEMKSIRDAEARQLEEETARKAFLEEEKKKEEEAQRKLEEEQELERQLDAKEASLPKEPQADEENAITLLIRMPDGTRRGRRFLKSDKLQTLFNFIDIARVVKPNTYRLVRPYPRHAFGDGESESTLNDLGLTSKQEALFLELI

GST-PUX7 = target: T5, GST-PUX7 (Arabidopsis thaliana, UniProt Q94JZ8 1-468); assay: pull-down
T5 sequence (looked up): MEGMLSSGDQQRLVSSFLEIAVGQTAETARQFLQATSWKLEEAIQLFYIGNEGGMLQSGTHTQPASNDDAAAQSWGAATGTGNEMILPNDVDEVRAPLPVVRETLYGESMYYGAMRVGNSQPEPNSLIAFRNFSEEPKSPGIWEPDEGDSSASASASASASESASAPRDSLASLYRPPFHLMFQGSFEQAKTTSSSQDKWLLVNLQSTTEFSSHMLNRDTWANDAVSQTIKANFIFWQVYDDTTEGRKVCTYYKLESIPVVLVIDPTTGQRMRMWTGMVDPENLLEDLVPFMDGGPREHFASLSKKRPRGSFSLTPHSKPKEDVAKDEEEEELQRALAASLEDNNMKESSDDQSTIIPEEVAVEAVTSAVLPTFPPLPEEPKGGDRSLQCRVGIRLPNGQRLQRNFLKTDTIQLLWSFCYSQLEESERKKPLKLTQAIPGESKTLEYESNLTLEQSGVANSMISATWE

6His-PUX8 = target: T6, 6His-PUX8 (Arabidopsis thaliana, UniProt F4JPR7 1-564); assay: ITC
T6 sequence (looked up): T4 sequence (looked up)

6His-PUX13 = target: T7, 6His-PUX13 (Arabidopsis thaliana, UniProt Q9C5G7 1-525); assay: ITC
T7 sequence (looked up): T3 sequence (looked up)

6His-PUX7 = target: T8, 6His-PUX7 (Arabidopsis thaliana, UniProt Q94JZ8 1-468); assay: ITC
T8 sequence (looked up): T5 sequence (looked up)

6His-PUX9 = target: T9, 6His-PUX9 (Arabidopsis thaliana, UniProt Q4V3D3 1-469); assay: ITC
T9 sequence (looked up): T2 sequence (looked up)

HA-DSK2a = target: T10, HA-DSK2a (Arabidopsis thaliana, UniProt Q9SII9 1-538); assay: pull-down
T10 sequence (looked up): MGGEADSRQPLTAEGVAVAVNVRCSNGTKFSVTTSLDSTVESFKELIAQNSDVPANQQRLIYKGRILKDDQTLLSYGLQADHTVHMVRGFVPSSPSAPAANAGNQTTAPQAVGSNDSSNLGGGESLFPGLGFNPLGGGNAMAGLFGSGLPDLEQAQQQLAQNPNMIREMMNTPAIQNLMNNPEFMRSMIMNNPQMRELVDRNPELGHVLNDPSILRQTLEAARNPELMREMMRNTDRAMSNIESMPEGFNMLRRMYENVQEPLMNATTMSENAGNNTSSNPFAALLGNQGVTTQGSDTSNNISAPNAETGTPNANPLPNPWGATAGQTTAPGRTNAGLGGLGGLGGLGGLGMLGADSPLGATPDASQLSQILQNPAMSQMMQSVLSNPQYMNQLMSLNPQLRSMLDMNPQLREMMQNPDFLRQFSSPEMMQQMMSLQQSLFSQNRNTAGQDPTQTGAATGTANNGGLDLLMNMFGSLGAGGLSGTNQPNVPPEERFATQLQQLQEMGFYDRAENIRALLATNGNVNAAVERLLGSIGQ

[1] = target: T11, GST-RPN10 (amino acids 201 to 386) (Arabidopsis thaliana, UniProt P55034 201-386); assay: pull-down
T11 sequence (looked up): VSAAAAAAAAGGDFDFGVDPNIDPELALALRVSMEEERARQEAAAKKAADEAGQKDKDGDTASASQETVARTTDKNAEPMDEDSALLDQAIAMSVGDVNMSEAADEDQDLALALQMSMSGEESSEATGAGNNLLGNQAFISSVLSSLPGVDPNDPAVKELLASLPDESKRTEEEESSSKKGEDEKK

[2] = target: T12, Arabidopsis DSK2a (pull-down of Figure S1E) (Arabidopsis thaliana, UniProt Q9SII9 1-538); assay: pull-down
T12 sequence (looked up): T10 sequence (looked up)

Measured: binding result

B1: 6His-Atg8 (yeast) (natural protein, S. cerevisiae, UniProt P38182 1-116, looked up)
chain: MKSTFKSEYPFEKRKAESERIADRFKNRIPVICEKAEKSDIPEIDKRKYLVPADLTVGQFVYVIRKRIMLPPEKAIFIFVNDTLPPTAALMSAIYQEHKDKDGFLYVTYSGENTFG
binds: GST-Ubx5

B2: 6His-ATG8e (natural protein, Arabidopsis thaliana, UniProt Q8S926 1-118, looked up)
chain: MNKGSIFKMDNDFEKRKAEAGRIREKYPDRIPVIVEKAEKSEVPNIDKKKYLVPSDLTVGQFVYVIRKRIKLSAEKAIFIFVDNVLPPTGELMSSVYEDKKDEDGFLYITYSGENTFG
not listed: GST-Ubx5
binds: all other assays above
